The data set concerns Saccharomyces cerevisiae. The data set is described as follows: transcriptional activation domain activity (GFP:mCherry ratio, weighted mean of sorted bins, harmonized to initial dataset scale) (arbitrary fluorescence ratio units); higher = stronger transcriptional activation. The following applies: beta-estradiol 1 µM; induction time 4 h. The procedure, abridged:
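Yeast diploids with a GFP reporter received barcoded protein tiles, fused to an estradiol-inducible synthetic transcription factor, at the URA3 locus. Cultures were diluted 1:5 into SC holding 1 uM beta-estradiol, incubated 4 hours at 30 °C, sorted into 8 bins on GFP:mCherry ratio, and sequenced for barcodes, with tiles under 50 reads discarded. Activation activity values come from the read-weighted mean of bin median fluorescence, averaged across barcodes and linearly placed on the initial dataset scale.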

With “NFFSCLSFLFLFIFLFIFLLFHFPYLFSFQFCLLPIFSHFSIDHQKPYPFPSF”, the “transcriptional activation domain activity” value turned out to be 37700.
For “NFGLMSGLYLYVCILGDSWCPSIDLIFNWMSYAYLWNVYIFLLEIIPVTLMVL” the value was 72100; for “NFIIQGNSMISTPSGRNDLPDTSPMSSIQTASPPSQLLTDQGFADLDNFMSSL”, 74500; for “NFLLNVSVVTRWFLFIVPVLGLLWIPGILSVTSFPNATVWSVRLLWWSIWLTV”, 63900.
For “NFMNNEITASKIDDGNNSKPLSPGWTDQTAYNAFGITTGMFNTTTMDDVYNYL” the value was 120000; for “NGEDAAPAAEPAGTSTADAVGGTTALPAAYRLKAFISHKGPSVHSGHYVVHIR”, 52700.
For “NGELPHENGGRETKVKFEGTAAPKESRIGQMRQHLLLLAESQHRFIRHCGTHG” the value was 29600; for “NGFCYSAITGGSIVLLLPGWYVFFYSLELQSRSMLCGSIRLGWAIIYAFFLGF”, 58900; for “NGFLLQVVRWNTRPHKEVVQLLTKYFTGAKHQRLLSENIGLIAEWTDRICQLG”, 58900.
In the case of “NGGCDYVFSMYVLGAGLWLFIFFLPPIIFSIVCLCYLALIWAVSWVLLWCLVF”, the “transcriptional activation domain activity” value came out at 49600.
Next, “NGGGEQPKGGRGGKSEGGAGNDQGRTNNRGRGDRRGGRGGRDNRGGRGGGSRD”: less than 6570.
Next, “NGGLSELKERLDEGRASYAYVKVTYSNDKESTREKFILVIWIGSSCKVMRKAK”: 42900; “NGHGTHCSGTVAGKKYGVAKKANIKAVKVLRSNGSGTMSDVVKGVEFAAEQHS”: 15600.
For “NGHGTHCSGTVAGKKYGVAKKANVYAVKVLRSNGSGTMSDVVKGVEEAVKMHN” the value was 37500; for “NGHIYPLSLNLFCFFSPMHAILYCFSISWDDYLSLAVLHSGLTIQMVLLVWHF”, 50000.
Turning to “NGIFILHHKWVIPTPFASHAFNPFDGFLQSLPYHLYVFMLPMHKWLYLGMFVF”, the “transcriptional activation domain activity” value came out at 71400.
Next, “NGLENAASVITILDKSSNGTFINGEKIGKGQQRLLKDGNEVSFGVCVRSTENN”: 24500.
Next, “NGLLRDVHVVFQDSSFCARLTEQIRRRLRMISSNWRETCCMEMLITLSLRLFH”: 45100; “NGNMIVNFFYKNIICIGCLWWFQIYCGWSSQYVFEYTYLLFWNVFWSLCPVIA”: 38800.
As to “NGPGTCVVLVLITYIRRMLGLRYSQVIYVESFARVKKLSLSGKLLKPFVDKFV”, the “transcriptional activation domain activity” value came to 54600.
Next, “NGPQGQQQQGQRAGQRGQGAGAGEAGQQNGQQGQQAGQRGRGTQAGAAGQQNG”: 20600; “NGPRRNNNTPNNSPLNPGENGTSRPPRQRNPRNRPPRPRTQDNAPEPSEPASG”: 19800.
Regarding “NGQRFVQLLCNECGTVLELSVLLASVYLSLNMGDLVRLQPGCLYESQKRQWGP”, the “transcriptional activation domain activity” value turned out to be 16300.
For “NGTPETHGESIDSKRPRACEACRGLKVKCEPDPTNPDGPCKRCTKANRNCVVT” the value was 25800; for “NHCKVFFLSFLFFVIYNYLLFILFFYILLLYCYPKPLFPLLSSSPPSFPPQFI”, 50300.
Next, “NHWVFGAFSECFIPGVFLSLHPLTFFLDWTIGFVSDVYTFDAHDPSILELLIF”: 47000; “NIAQNMNQFRRQQVVYSPDTRKYSLLIREGRVGYPGVACMEIESTDPSLVVDK”: 35000; “NIDPAAIDDKWLSEFINNSDPKSTFKINFNHFNDIGFIYSPPSSRSSIPNKSP”: 101000.
Next, “NIFMLVFWSLALIYWSMFVIIPSIFNYFSPYHYSRWKVVLVNVGTFVWNLATC”: 61300.
As to “NIFVLHWLPSLSIASLFHTSSSSSPLLAQFFALFRSFFLSIFLFSIVYILLLF”, the “transcriptional activation domain activity” value amounted to 72200.
In the case of “NIHLVNMAQVVVIFFHRLLYGIIPLFEITTCAFFPVLVSLWHLAYILFYVVMF”, the “transcriptional activation domain activity” value stood at 69100.
Next, “NIIALFLVTNQLTTCSVLPLCMGLFKVFDGFVSEGAVLFGSIFAFFSVLVHGY”: 61300; “NIKTFLYTCITHIYINFILCLCACITHYQVYYHYYVNIFTFIFVWLCSFFLFL”: 45200.
For “NILFHKLFYAYENVLVIISLIYKKKPLGRLQNTRKCSSINVLCNYILEYGRKY” the value was 42100; for “NILKLPSMVDGSQHCDISKFIVAAAHKIVTPDVSPRGWVLLKLLRSYIELDMY”, 29100.
As to “NILRPSLGCILFILIRYVSIIVMVVSNYGVLATSFTVEVCNRYYLVAPVFKVL”, the “transcriptional activation domain activity” value was determined as 46800.
Next, “NILVRELQWCILCIRYTALGSLDHIRRLMTEIPAHHGLVRFLQRWVENWLEEQ”: 37400; “NIPIESSWHLFTNYVGLDIKQIVLLGKSLHYFNPGFLLHVNLFNWLWPKIVQL”: 63300.
Next, “NIQSFDAIYFAALQVIIVSSANGWSPLMYQMMDSEFFVSCVFFIICIVVLNFW”: 61500; “NISTSVYVLLVCFHPLFLLLLLLLLLLLLLYRFVFAFFFISFFFFFLLLLLLL”: 25000.
Next, “NITKILVMKFFTIDFTFTIMYITGLLITFLYYLVGYFQMNVKLLGSDRAYFAF”: 35700; “NITKVAERGERLDSLQDKTDNLAVSAQGFRRGANRVRKVSSVVPFIQHSAHKL”: 22000.
With “NKDGNGDGGEGKDKDEENRSGNRDGKRERGRKEDRERVAGSSGGGAKGLKRKR”, the “transcriptional activation domain activity” value amounted to 42600.
For “NKEKMAAFGSFVTEDQEKMEVSFNIFNEITIQDLNFLQFSSIPKLWENKTLEP” the value was 79600; for “NKHVFLILIRSTLCNNWLIATIWVVEIRFCLDLLQTAFPLIFFRFLTWLFFFQ”, 79900; for “NKKRETRKGESTKSNDEEEEEEEDDDDEKKQGQKKQSNGQSKKSNGSSKKEED”, 48700.
Regarding “NKMKVHINKTNYELDSKEAVMAVLGTHRVEVSVLCLLYLVLRRHKKILDFASS”, the “transcriptional activation domain activity” value was determined as 48200.
On to “NKVLRWALDSHIKKWSLDHLRTIAHLIQVVELHHFWSEKENAVALIRVIFKSL”, for which the “transcriptional activation domain activity” value was 59700.
For “NKWLNVIQKFLKELDGRDKLMKTIQYFIKILLHYKMARAKHWSSLTSHLSMTR” the value was 66400.
Next, “NLCELIYLDRLCGCCLFSMRSVVFIDLLSTLIQPVTVVYIVYLIYLVAANGAT”: 28000.
Next, “NLCLLIAASLISIISLVNLLDFFLTWFGQFITIENLTLELILGYILYPYAWLL”: 40000.
On to “NLCMQLLVAPTRDEIDAAHRRKIWLDVGIQSWRNLTNIMPSRMWIWIILLLSS”, for which the “transcriptional activation domain activity” value was 34900.
Consider “NLDFDFALPQTATAPDAKTVLPIPELDDAVVESFFSSSTDSTPMFEYENLEDN”, for which the “transcriptional activation domain activity” value came to 91700.
Next, “NLDFFDFENSFGDLWNMDEFYGDVAWDLSSDPPLDPLFIGELYSASGQYGDLQ”: 159000.
Next, “NLFGWVRYAGVSVDHLKVHIVGAELWNRYKYAAGIWGYRALPIIALMASLIAC”: 54200; “NLHNASTSSFNNEAFWKPLDSAIDHHSGDTNPNSNMNTTPNGNLSLDWLNLNL”: 84600; “NLISLPLLKLCSEFAHVKWYEVLSHIVCFGFNGPTKPRSNNLVSLNLQCEHYK”: 48400.
Next, “NLLARRPFFVFWFMGQIHRSLTLFHCDPTLLVALDVCKSLIPAINYLTLLWPC”: 70900; “NLLDFRKILVNVVCILVVDVVLLMSMLIGLLRYSHRNSTGLWHLLYQQCIIWL”: 45000; “NLLLFPGISFKTQLLYAIVFCTRYLDLFIRFVSIYNTLMKIFFIGSSFYILYL”: 67300.
As for “NLLMRPRYPPNQFISKISLRLILTDLPYMIFVFSGIFIMLGLFYPIFYLQLYA”, the “transcriptional activation domain activity” value is 50400.
For “NLLQHIIPPFFINHHHHYYSPFHTSYTFFFSTFVYALFFYIIMYLSIFISLLL” the value was 62200; for “NLLSKELLMPAVSELNEYLDLFKNNFLPHFPIIHPSLLDLDLDSLQRYTNEDG”, 48900; for “NLLYQLGVFVARSSTPFIRLHNLYLPSCLQILNLLLLVSQSLYWWIPSVYLVF”, 76500.
Next, “NLMGSQARSNSQTPTASTIYEEAESQSSYLDDMFRTSQGGRPVTQNSISSIGQ”: 56100; “NLMIIVLVVSNLRLMIENYRKYGVLICIQCHDYRQQDILYGLILYLLVPCHLF”: 39400; “NLMLQVVSPRIWFPSMQLIWGVLTFWWVAMPCRRIFITHILDHGIQIYAIRFF”: 61400.
For “NLMVIVLFVGNLRLVIENIQKYGVLICIRCHDVRESDLILGLSLYFLIPCHLL” the value was 67300.
For “NLNFMPINNNYNNSGSNINNNDNVKLPSNFKNYYDPPMSSLDISMDVPDIFGS”, the “transcriptional activation domain activity” value worked out at 94300.
Next, “NLNSLNQSEEEGHIGRWPPLGYEAVSAEQKSAVQLRESQAGASISNNMNFKAN”: 48200; “NLPSLIGIQLLSSMGEYVMLWLIFVGTVIYYAGWVTLVIDGFCRFLNIRCLVI”: 56900.
Consider “NLQKIISYLLPAGSWSEDWPIILNVFFGCPLPLSSFLMVIICCFTDLFCCLTL”, for which the “transcriptional activation domain activity” value was found to be 47100.
For “NLRLMIVNFRKYGVLICIRCHDYRRQDVVYGLLLYLLVPCHLFVAYLIELAAA” the value was 47800; for “NLRVIELRFSLRFYRDVVFCRKLLRKHEVFVTIIKLLLCLLTLDIEGLKIKVG”, 46500.

The values above are taken from the supplement of paper PMC12636428.
